Data taken from paper PMC4855144, “Novel Coronin7 interactions with Cdc42 and N-WASP regulate actin organization and Golgi morphology” (Scientific Reports, 2016).

Legend:
Assay in all cases: pull-down; Glutathione-Sepharose beads coated with GST alone or GST-GTPase fusions pre-loaded with GDP (DN) or GTPγS (CA), incubated with lysates of HEK293T cells expressing GFP-CRN7 WT or CRIB mutants; blot with GFP mAb K3-184-2 or anti-N-WASP; ImageJ quantification, input set at 100%
Conditions in all cases: one partner purified
[1] = target: GST-Rac1 dominant negative (DN/T17N), preloaded with GDP (UniProt P63000 1-192, T17N)
[2] = target: T1, GST-Cdc42 dominant negative (DN/T17N), preloaded with GDP (UniProt P60953 1-191, T17N)
T1 construct: Preloaded with GDP; also called Cdc42DN; Cdc42 DN; source: E. coli BL21, purified (Glutathione Sepharose), held on glutathione-Sepharose beads

[3] = target: GST-Rac1 constitutively active (CA/Q61L), preloaded with GTPγS (UniProt P63000 1-192, Q61L)

T1 sequence (P60953 whole entry T17N): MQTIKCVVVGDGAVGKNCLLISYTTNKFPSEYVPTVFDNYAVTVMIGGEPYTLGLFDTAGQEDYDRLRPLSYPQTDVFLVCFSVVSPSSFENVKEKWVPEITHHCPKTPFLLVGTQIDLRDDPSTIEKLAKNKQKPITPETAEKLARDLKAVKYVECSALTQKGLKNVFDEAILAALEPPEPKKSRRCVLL

B1: GFP-CRN7 WT (human Coronin7, full length, GFP on its N-terminus) (natural protein, UniProt P57737 1-925, looked up)
chain: MNRFRVSKFRHTEARPPRRESWISDIRAGTAPSCRNHIKSSCSLIAFNSDRPGVLGIVPLQGQGEDKRRVAHLGCHSDLVTDLDFSPFDDFLLATGSADRTVKLWRLPGPGQALPSAPGVVLGPEDLPVEVLQFHPTSDGILVSAAGTTVKVWDAAKQQPLTELAAHGDLVQSAVWSRDGALVGTACKDKQLRIFDPRTKPRASQSTQAHENSRDSRLAWMGTWEHLVSTGFNQMREREVKLWDTRFFSSALASLTLDTSLGCLVPLLDPDSGLLVLAGKGERQLYCYEVVPQQPALSPVTQCVLESVLRGAALVPRQALAVMSCEVLRVLQLSDTAIVPIGYHVPRKAVEFHEDLFPDTAGCVPATDPHSWWAGDNQQVQKVSLNPACRPHPSFTSCLVPPAEPLPDTAQPAVMETPVGDADASEGFSSPPSSLTSPSTPSSLGPSLSSTSGIGTSPSLRSLQSLLGPSSKFRHAQGTVLHRDSHITNLKGLNLTTPGESDGFCANKLRVAVPLLSSGGQVAVLELRKPGRLPDTALPTLQNGAAVTDLAWDPFDPHRLAVAGEDARIRLWRVPAEGLEEVLTTPETVLTGHTEKICSLRFHPLAANVLASSSYDLTVRIWDLQAGADRLKLQGHQDQIFSLAWSPDGQQLATVCKDGRVRVYRPRSGPEPLQEGPGPKGGRGARIVWVCDGRCLLVSGFDSQSERQLLLYEAEALAGGPLAVLGLDVAPSTLLPSYDPDTGLVLLTGKGDTRVFLYELLPESPFFLECNSFTSPDPHKGLVLLPKTECDVREVELMRCLRLRQSSLEPVAFRLPRVRKEFFQDDVFPDTAVIWEPVLSAEAWLQGANGQPWLLSLQPPDMSPVSQAPREAPARRAPSSAQYLEEKSDQQKKEELLNAMVAKLGNREDPLPQDSFEGVDEDEWD
notes: Coronin7 (CRN7), human, wild type, full length; CRIB motifs at 116-130 (NT-CRIB) and 582-599 (CT-CRIB); also called full-length CRN7; source: HEK293T, transfected (PEI), in lysate; not shown: GFP, N-terminal, kept
- percent of input bound [1]: ~17 % of input
- percent of input bound [2]: 65 % of input
- percent of input bound [3]: 7 % of input
